Test [1] concerns the target T1, NOP receptor (Homo sapiens, UniProt P41146). Nature of the test: competition, [3H]N/OFQ.
Test [2] addresses T1, NOP receptor. Nature of the test: competition, [3H]N/OFQ. This is another data set of the same source.
The next test concerns the target T2, DOP receptor (Homo sapiens, UniProt P41143).
T2 chain: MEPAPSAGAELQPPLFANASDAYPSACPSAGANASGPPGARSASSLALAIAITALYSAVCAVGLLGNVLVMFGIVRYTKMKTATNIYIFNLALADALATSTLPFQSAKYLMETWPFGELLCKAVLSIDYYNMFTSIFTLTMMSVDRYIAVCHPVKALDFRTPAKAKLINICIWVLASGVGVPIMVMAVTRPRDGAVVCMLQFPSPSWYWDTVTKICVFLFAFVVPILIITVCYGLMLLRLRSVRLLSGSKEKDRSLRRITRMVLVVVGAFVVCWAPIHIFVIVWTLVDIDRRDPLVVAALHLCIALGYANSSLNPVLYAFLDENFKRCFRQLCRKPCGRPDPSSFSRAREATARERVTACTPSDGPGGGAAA
Nature of the test: competition, [3H]-diprenorphine.

Another test concerns the target MOP receptor (Homo sapiens, UniProt P35372). The test is described as follows: competition, [3H]-diprenorphine.

Where two headings read alike, the source gives them in different places.

Broadly, the Ki is a dissociation constant, usually derived from enzyme kinetics or from competition with a known ligand.

T1 sequence (P41146 whole entry): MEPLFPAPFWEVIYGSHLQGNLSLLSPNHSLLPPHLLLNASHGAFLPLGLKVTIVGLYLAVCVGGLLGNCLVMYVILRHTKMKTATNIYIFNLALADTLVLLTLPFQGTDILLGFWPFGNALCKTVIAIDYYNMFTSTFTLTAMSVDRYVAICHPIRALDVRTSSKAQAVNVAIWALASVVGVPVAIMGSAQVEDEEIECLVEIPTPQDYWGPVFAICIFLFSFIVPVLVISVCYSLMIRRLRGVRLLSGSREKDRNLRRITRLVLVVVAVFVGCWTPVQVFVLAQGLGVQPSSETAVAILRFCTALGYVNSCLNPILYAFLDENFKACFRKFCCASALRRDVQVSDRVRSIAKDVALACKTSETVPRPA
MOP receptor, sequence (P35372 whole entry): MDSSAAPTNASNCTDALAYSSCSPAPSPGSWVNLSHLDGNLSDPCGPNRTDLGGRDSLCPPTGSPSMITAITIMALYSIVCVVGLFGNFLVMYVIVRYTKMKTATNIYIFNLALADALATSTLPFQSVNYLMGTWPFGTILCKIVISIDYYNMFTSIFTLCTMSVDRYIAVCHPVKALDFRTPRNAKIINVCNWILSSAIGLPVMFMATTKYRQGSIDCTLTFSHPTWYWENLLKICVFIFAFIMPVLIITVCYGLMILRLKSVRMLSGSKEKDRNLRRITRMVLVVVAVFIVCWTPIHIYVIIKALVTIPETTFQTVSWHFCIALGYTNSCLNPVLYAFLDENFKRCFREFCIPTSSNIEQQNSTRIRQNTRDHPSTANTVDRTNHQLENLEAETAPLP

XGGFTGXRKSARKRKNQ ([Nphe1,Aib7,Arg14,Lys15]N/OFQ-NH2; X1 = Nphe, X7 = Aib, C-terminal amide) [UFP-111]: the inhibition constant (Ki) with NOP receptor [1] was 17.8 nM; with NOP receptor [2], 0.178 nM; with DOP receptor, greater than 10000 nM; with MOP receptor, greater than 10000 nM.
